Measurements: US20040253224

Tested on: Bovine submaxillary gland mucin (Sigma)

mouse AMCase (acidic mammalian chitinase)
degradation of mucin on 7.5% SDS-PAGE with silver staining after overnight incubation at 37 C, pH 5.0 (125 ug mucin, 500 ng mouse AMCase): the mucin was degraded by treatment with the AMCase | flow rate of the mucin solution, measured in a vertically positioned glass pipette, after incubation with AMCase: increased with almost a factor of 2
